The data set concerns the target T1, StrepHP1021 (HP1021) (Helicobacter pylori 26695) (UniProt O25665).
T1 sequence: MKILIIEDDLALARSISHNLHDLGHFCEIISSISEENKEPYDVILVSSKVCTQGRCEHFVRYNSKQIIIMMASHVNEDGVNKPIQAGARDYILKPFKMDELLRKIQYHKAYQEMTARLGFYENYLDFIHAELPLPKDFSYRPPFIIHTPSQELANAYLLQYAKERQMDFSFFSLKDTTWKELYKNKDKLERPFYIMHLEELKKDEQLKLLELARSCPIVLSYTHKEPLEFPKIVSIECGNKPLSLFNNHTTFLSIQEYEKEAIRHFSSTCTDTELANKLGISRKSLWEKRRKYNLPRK
The data set can be described thus: EMSA. To be noted: EMSA: 50 mM Tris-HCl pH 8.0, 100 mM NaCl, 0.2% Triton X-100, 5 nM DNA, 37 C 20 min; 4% PAGE in 0.5x TBE or TB at 20-25 C. SPR: 50 mM Tris-HCl pH 8.0, 100 mM …. For orientation: In EMSA bound probe runs differently from free probe, usually more slowly.

Binding data for 2 sequences are collected here from paper PMC8266642.

As for “GGAGTAAGAATAGCTTCGAATCTCTATTTTGAAAACCCCTATTTCAGGCTTTTGAGTTTTTTAGGCTCTAGTTTTATCCACCCCTTTGGATTTGATTGGTTAGTCCCAGATAGCTTTTTTTCTTATAGCGTGTTTAGAGTGGATAAATTATCGCTAGGGCTTGTTTTTTTGGCTTGCATTTTTTTGAGCACTAAACCATTGAAAAAATATAG (double strand) [FAM-HP0180 fragment]”, the binding entry is on record as “binds more weakly”. The result for “ATGATATTTATATGATATTTTTGGGTAATTTAAGATGAATATCGGTAGCGTTTTGAATAAATTTGTTACTACTTTTCACTTTATTACGCCAAATTTTCCCTTATTACAAACAACTTTGAAATAAATGATTTCCATTTAAAAATCAGCCTTATACTTCTAATAGGTTGCCTTGAGCAACACTTTAATACAAGGAGTCTAAATGAAAGACGCAAATTCGAAGCTATTCTTACTCC (double strand) [phyuA]” reads “binds”.
